Experimental data: patent publication US20050037969A1

Biological target: GST-DLG1 fusion protein (PDZ domains 1-2) (human) (UniProt Q12959)
Test: variant of the G assay, 100 uM 8-mer against 20 uM biotin-labeled AA2L

percent inhibition at 100 uM: > 50%
Substance: eight amino acid CLASP-2 peptide MTSSSSVV (unlabeled)
